Experimental data as given in paper PMC13384500, “RNA selectively modulates activity of virulent amyloid PSMα3 and host-defense LL-37 via phase separation and aggregation dynamics”.

Columns and labels:
[1] = target: T1, PSMα3 (Staphylococcus aureus, UniProt P0C805); assay: EMSA; apparent Kd, Hill fit with n > 1; 40 nM RNA; weaker than Poly(AU); settings: tags: none (unlabeled)
T1 chain: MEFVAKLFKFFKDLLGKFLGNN

[2] = target: T1, PSMα3; assay: EMSA; apparent Kd, Hill fit with n > 1; 40 nM RNA; settings: tags: none (unlabeled)

Row | Binder | Kd [1] [µM] | Kd [2] [µM]
1 | AAAAAAAAAAAAAAAAAAAAAAAAAAAAAA (ssRNA) [Poly(A) RNA (30-nt oligoA)] | 94.5 ± 5.4 | 
2 | Poly(AU) RNA (30-nt oligoA/oligoU) (dsRNA) RNA 1: AAAAAAAAAAAAAAAAAAAAAAAAAAAAAA RNA 2: UUUUUUUUUUUUUUUUUUUUUUUUUUUUUU |  | 61.8 ± 1.6
